Test: soluble on expression in E. coli; label from the status in PepcDB or PDB records

Sequence	soluble on expression in E. coli
MSLTPFGVRSVVFDPDKGLVINGEHVPIRGVNNHHDLGALGAAFNVRAAERQLQLLQQMGANAIRMSHNPPAPELLELTDRMGLLVVDEVFDSWEMKKTPLDFHLIFPQWHEPDLRAMLRRDRNHPSIILWSVGNEVGEQYTGEAGAAIARRLHAIVHAEDPTRPATAAMNYASPEMPLPAALDVISLNYQGEGIRDTPEFEGTERIRKPPQYPAFHAKFPRKAILSSETASALSSRGVYLFPVSAQSSAPVRDGRGGDSVAHQVSAYELHAVDFGSSADKVFAALDRHPFVAGEFVWTGFDYLGEPTPYYSSRSSYSGILDLAGFPKDRYWLYQARWRPELPMAHLLPHWSWPGREGQVTPVHVFTSGDEAELFVNGVSQGRKRKAPLQYRLRWDAVVYQPGELRVQAYKHGRPWASDRVQTAGRATRMQLSADRNQIRGDGKDLSFITVRLLDADGRPAPTAGDRLRFRVEGAGELVATDNGDPTNLEAFVLPEREGHHHHHH	soluble
MGSDKIHHHHHHMIIEHARDMLKRERLFFDKMQAHIGEVNGTISIGCSSLIGQTLLPEVLSLYNAQFPNVEIQVQVGSTEQIKANHRDYHVMITRGNKVMNLANTHLFNDDHYFIFPKNRRDDVTKLPFIEFQADPIYINQIKQWYNDNLEQDYHATITVDQVATCKEMLISGVGVTILPEIMMKNISKEQFEFEKVEIDNEPLIRSTFMSYDPSMLQLPQVDSFVNLMASFVEQPKA	not soluble
MGSDKIHHHHHHFGKQSKPTPNFAKKSDAYSADDDRVPNLVDDDEEEIIGDEEDDVNQPGPSGSQSNPEPQDEEENAEQQSANSSQSSAAEEEDDEHVVPENEPVKPTEEFAKKSPKNTGGAKRRTARRGD	not soluble
MSTSTAPSSASSDADSLNHDENPIKAVIFDYGEVMWMQSRNVHVYRKIEEDNKLFDNSLIPTLVSKELSSILPKGFQEDLLTGIYTAKDFDRLFLSAYNRKFGSQVESLKFFSATEYDNDAVYEEAVLTACQKLRERGVKTILMLDTYHVDEKRNGRRIPNMEKYFDHVIESCKEGVKKPDPRFYQIALDCVDVQPEEVIYIDDSKINCESAAVLGIRYIQVFNSMDMLEDLQEILGFDLD	not soluble
MGSDKIHHHHHHMMADERIEVLKDILLELHHGASAESVQERFNQHFKGVSAIEISMMEHELMNADTGITFEDVMGLCNVHANLFKGAIADVDVPDAEQEGHPVKVFKDENLALRAAIMRIRRIIENYTKPENEDFRQEILKGLKHQFDLLGQFYHHYTRKEKLFFPIMERYGHDSPPKVMWGVDDDIRDLFKDAKATLAKLPDGSIEELSQKFEAFAKEFEEMIFKEEAILLMILLESFTQDDWLQIASESDAYGYAILKPTEKWIPHRESFDNEADADTSDNQLADALNQVQDANSPEGTNTKVINTPEGQFTITFKPKEKEAAADRTTQQPFGNGYLSVEQANLILNHLPLEITFVNKDDIFQYYNDSVPAAEMVFKRTPSQVGRNVELCHPPKVLDKVKKVFELLRNGQRDKVNMWFQSERLGKFVYVTYAAVRDQAGDFQGVLEYVQDIKPFFELDSEFNRDI	not soluble
MAALRYRRFLKLCEEWPVDETKRGRDLGAYLRQRVAQAFREGENTQIAEPEACDQMYESLARLHSNYYKHKYPRPRDTSFSGLSVEEYKLILSTDTLEEFQEMNKSMWKKLQEKFAPTRPEEKHKAWTRVLSRPRT	soluble
MSGLPCNERMDCTQCPKAVENSIHYTHNKKGFHLPPHKCETNILFFLLKGQILINSEEYAGTIINSGEFVLQAIASKVEILAMTDSEGILYTFDDPKAFCYDRYTYILKNVPPPLISEPLKIKPEIKLFLEGVASYLNADKICKELLEFKRKELYYLLAHYYTDYELSPVVHSLSQYTSSFEYFILKHHKQIKSVEEFAQLGGYSVTTFRRIFKAIFNEPAYEWMMKQRKESILYQLRYTDASISEICFGHGFESLSHFSNFCKKSFGDSPRNIRKKEKEEISPNT	not soluble
MMGFSFYFFNEERYKMDKKDYKINKQNATAAKQQPLSPAAQRALNEAEERRKHETNEEKPLENGGRGGKDPSRYGDWEIKGRAIDFLEHHHHHH	not soluble
MANSMIFKAEGNQLIAERVFDAPRELVFKMFTEAEHLKNWWGPRGWDLTVCNIDFRPGGSWHFCMKCVDENQGDFYGYESWGKALYREIVDGEKIVYVDYFSDSEGNLSEEMPAAEITLTFIDLGGKTKIVNQVEYPSAEELQKGLDMGMEQGFTETWDRLVEYLQDIQLEHHHHHH	not soluble
MENMIVIMAGGRSSRMGAEKPILKVNGKPMILRVYEESTKVGETLVAISKNTPKTRELCIKEGIPLIETPGEGYVEDVRYLLKELGSFVSVSADLPFVKACDIAEVKKAFDGKTSLTGVLPLSKVPTDLRPVVYKGYVIVGLNGVGFEGEKFYELSNPLLALNVNTPEELKLANRIAKLIGLEHHHHHH	not soluble
MGSDKIHHHHHHMPSIFEKYQLKQVINASGRMTALGVSTPRPEVIDAAMAGMNQYFEMKDLVNKTGEYIAKLLEVEGATVVSCASAGLAQSVAAVLVQDSDWLLENLHVTPIENNEIVLPKGHNVNFGAPVGTMVALGGGKLVEAGYANECSAAQLAAAITPRTAAILYIKSHHCVQKSMLSVEQAAVVARTHNLPLIVDAAAEEDLQCYYRVGADLVIYSGAKAIEGPTSGLVIGKTQYVEWVKRQSAGIGRAMKVGKEGIVGLTCAIELYLRAQKESGAEMVEKMAPFIDTLNTFNGVSARVVWDSAGRDIARTEIKFDEAVTGIATGELVDALKQGEYAIYFRGYKANEGIIEADVRSVDRAQLAIVARRIGEVINQEKQA	not soluble
MSLEGINPAVIMKAIMQSESVEQLSQEREKAEKLLKMYIAQDVAIHFISNIFTELNDALIVKAIEFSVADMKREGIDLPDIEFCWLSLGSEGRKEQLLRTDLDNAILFRDPENEASRETVQRVFLELGKRVTAILVACGFKPCPAEIMASNPEWCQPLSGWMNYFRKWIGTPEPKALMNSTIFFDFRPVYGSTALALEMKREINTEIARGRGFLQFFAKNALQNPPPLGFFRNFLVEKSREHAHEFDIKARALMPLSDAARVLACEFGVTDFLGTVERFRRIGQLLPSFQELAEEAAQGYEFLMRLRTEHGLAEKSSGRYIDPKHLNKMQRQKLRDLFTTIGKVQSMLNLRYQLDYIRAEGHHHHHH	soluble
MSYYHHHHHHNYNIPTTENLYFQGAMVAPAGEQGRSSTALSDNPFDAKAWRLVDGFDDLTDITYHRHVDDATVRVAFNRPEVRNAFRPHTVDELYRVLDHARMSPDVGVVLLTGNGPSPKDGGWAFCSGGDQRIRGRSGYQYASGDTADTVDVARAGRLHILEVQRLIRFMPKVVICLVNGWAAGGGHSLHVVCDLTLASREYARFKQTDADVGSFDGGYGSAYLARQVGQKFAREIFFLGRTYTAEQMHQMGAVNAVAEHAELETVGLQWAAEINAKSPQAQRMLKFAFNLLDDGLVGQQLFAGEATRLAYMTDEAVEGRDAFLQKRPPDWSPFPRYF	soluble
MSLAQQKPVEKVDSDGVYLMPDQMPEFPGGMQAMMKFLTTNIKYPVEAQKKGVSGRVIVQFVIMEDGTLDQAKVVRGVDPLLDEEALRVVKLMPKWKPGMDRGEAVKVRFTAPIMFNLSRSEAQRPTFPELVVPIGQEVENRSLQGVWQSCVAQPGEHGYKILLLPVLKIVSPDQTFMNIMTAGMNGRSNAIIYCQGEYSLPSDGTYVEMVEKSVDPVFIQGVKNEISVERLHDNLIKLSFTVPGQGRKVTEYWFRAPSPDVKIMAEGHHHHHH	soluble

From the DeepSol protein solubility set
